The target of the data set is HuR (ELAVL1 human recombinant protein) (Homo sapiens, UniProt Q15717 1-326). Kind of data set: EMSA; HuR 0-150 µM as printed (25-200 µM in Methods); 20 mM HEPES pH 7.6, 3 mM MgCl2, 40 mM KCl, 5% glycerol, 2 mM DTT, 20 µg yeast tRNA, 20 U RNasin, 20 µL, on ice 10 min (plus 15 min with antibody); 5% native PAGE, 0.5x TBE. Conditions: protein: commercial. On the technique in general: Mobility shift assays separate free from complexed probe on a gel.

Data on one molecule can be found in paper PMC12803514, “The RNA-binding protein HuR modulates the expression of the disease-linked CCL2 rs1024611G-rs13900T haplotype”.

Sequence of HuR (ELAVL1 human recombinant protein) (Q15717 whole entry): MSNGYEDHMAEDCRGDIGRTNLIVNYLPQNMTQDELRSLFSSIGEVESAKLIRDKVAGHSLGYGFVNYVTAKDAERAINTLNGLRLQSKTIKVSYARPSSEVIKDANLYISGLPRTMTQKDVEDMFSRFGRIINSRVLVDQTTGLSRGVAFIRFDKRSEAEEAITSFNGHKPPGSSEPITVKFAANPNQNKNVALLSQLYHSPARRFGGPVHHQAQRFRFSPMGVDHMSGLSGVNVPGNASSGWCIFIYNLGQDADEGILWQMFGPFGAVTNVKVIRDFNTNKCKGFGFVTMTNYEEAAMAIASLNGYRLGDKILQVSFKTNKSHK

Consider CUUUCCCCAGACACCUUGUUUUAUUU (ssRNA) [rs13900T oligoribonucleotide], for which the binding result was “binds”.
